Broadly, the Kd is the concentration at which binding is half-saturated. Read a low Kd as a tighter complex.

This assay deals with IgG. Put plainly: microcalorimetry and surface plasmon resonance. In general terms: Surface plasmon resonance follows binding to a sensor surface in real time, without labels.

“locked helix peptide FNM(5)QQRRFY(6)ALH, cyclized (Fig. 11)” displayed a Kd of 100 µM.

The values are drawn from patent publication EP0938497B1.
